Assay: yeast display, Sf9 membrane polyspecificity reagent, FACS + sequencing; frameworks hold sequencing errors
Procedure, shortened: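 A nanobody's polyreactivity label depends on the gate it was sorted from. Yeast display cells were stained with 10% biotinylated, detergent-solubilized Sf9 membrane reagent for 1 hour at 4 °C, enriched on streptavidin microbeads and sorted by FACS. The low and high (top ~1%) gates were set on anti-HA fluorescence for expression and streptavidin fluorescence for reagent binding.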

Row | Sequence | polyreactivity (PSR sort gate)
1 | QVHLVESGGGLVQAGGSLRLICAASVFNLDWYVMGWNRQAPGKERQLVAAISSSGGRTYNADSVKGRFTISRDKAKNTVYLQMNSLKPEDTAVYYCAARNKYGGYPYGYDYWGQGTQVTVSS | high polyreactivity
2 | QVQLVETGGGLVQAGGSLRLSCAASGITFYEYALGWYRQAAGKERELVAAISTSGGNTYYAESVKGRFTISRDNAKTTVYLQMNSLKPEDTAVFYCAAQGTASSYSGGDYWGQGTQVTVSS | low polyreactivity
3 | QVQLVESGGGLVQAGGSLRLTCAASGIILVAYPMGWYRQAPGKERELVAAITTSGTSTYYADSVKGRFTISRDNAKNTGYVQMNSLKPEDTAVYYCAVRQRYGPARYDYWGQGTQVTVSS | high polyreactivity
4 | QVQLVESGGGLVQAGGSLRLSCAASGRIFRYYAMGWYRQAPGKERELVAAISTSGDTTYYADSVKGRFTISRDNAKNTVYLQMNSLKPEDTAVYYCAKPIAPARNAYPAYDYWGQGTQVTVSS | high polyreactivity
5 | QVQLVESGGGLVQAGGSLRLSCAASGRTFASYAMGWYRQAPGKERDFVASISRRGGSTNYADSVKGRFTISRDNAKNTVYLQMNSLIPEDNAVYYCAKRFTLPLSEYDYWGQGTQVTVSS | high polyreactivity
6 | QVQLVESGGGLVQAGGSLRLSCAASGRTFQTNDMGLYRKAPGKERELVAAISRRGGSTYYADSVKGRFTISRDNAKNTVYLQMNSLKPEDTAVYYCAATRLSRYDYWGQGTQVTVSS | low polyreactivity
7 | QDQLVESGGGLVQAGGSLRLSCAASGSTDYTYDMGWYRQAPGKERELVASITSGGSTNYADSVKGRFTISRDNAKNTVYFQMNSVKPQDTAVYYCAVGTYTIYSGTLYDYKYYWGQGTQVTVSS | low polyreactivity
8 | QVQLVESGGGLVQAGGSLSLSCAASGSIFHPYTMGWYRQAPGKERELVAGISQSSDSTYYADSVKGRFTISRDNAKNTVYLQMNSLKPEDTAVYYCNRDNDWPLSVVEVDYWGQGTQVTVSS | low polyreactivity
9 | QVQLVESGGGIVQAGGSLRLSCAASGSIFGPYAMGWYRQAPGKERELVAAITWTGGRTYYADSVKGRFTISRDNAKNTVYLQMNSLKPEDTAVYYCAADYSPSTWYLYYTLYYYWGQGTQVTVSS | low polyreactivity
10 | QVQLVESGGGLVQAGGSLRLSCAASGFIFYLNVMGWYRQAPGKERELVATITSGGSTNYADSVKGRFTISRDNAKNTVYLQMNSLKPEDTAVYYCAAEQVWYDWEYDYWGQGTQVTVSS | high polyreactivity
11 | QVQLVESGGGLVQAGGSLRLSCAASGRTFRYNDMGWYRQAPGKERELVAAITYTADRTYYADSVKGRFTISRDNAKNTVYLQMNSLKPEDTAVYYCNAAYGRRVTFRPYYWGQGTQVTVSS | high polyreactivity
12 | QVQLVESGGPIVQAGGSLRISCAASGRTYAYKTMGWSRQAPGKERELVAGINSSGGSTYYADSVKGRFTISRDNAKNTVYLQMNSLKPEDTAVYDCAADNSPRPYDSWGQGTQVTVSS | high polyreactivity
13 | QVQLVESGGGLVQAGGSLRLSCAASGRNFGAYAMGWYRPAPGKERELVAAITTAGSTHYADSVKGRFTISRDNAKNTVYLQMKSLKPQDTAVYYCAADGIARSYVLFDAYDFLYDYWGQGTQVTVSS | low polyreactivity
14 | QVQLVESGGGLVQAGGSLRLSCAASGSTFRRNAMGWYRQAPGKERELVASISFSGGSTFYADSVKGRFTISRDNAKNTVYLQMNSLKPEDTAVYYCATRYYYSSYEYWGQGTQVTVSS | high polyreactivity
15 | QVQLVESGGGLVQAGGSLRLSCAASGFTFERNTMGWYRQAPGKERELVATITRRGTSTYYADSVKGRFTISRDNAKNTVYLQMNSLKPEDTAVYYCARGQYSHRSQAGMDYWGQGTQVTVSS | high polyreactivity
16 | QVQLVESGGGLDQAGGSLSLSCAASGIIFAGNAMGWYRQPPGKERELVAAISSNGGSTYYADSVKGRFTISRDNAKNTVYLQMNSLKPEDTAVYYCAADRVYWGRVQGYYWGQGTQVTVSS | low polyreactivity

Row | Sequence | polyreactivity (PSR sort gate)
17 | QVQLVESGGGLVQAGGSLRLSCAASGFIFARYAMGWYRQAPGKVRELVARITTGDSTYYADSVKGRFTISRDNAKNTVYLQMNSLKPEDTAVYYCAADDNVSVVGLYYWGQGTQVTVSS | low polyreactivity
18 | QVQLVESGGGLVQAGGSLRLSCAASGSIFRVYAMGWYRQAPGKERELVARISWSDDGTYYADSVKGRFTISRDNAKNTVYLQMNSLKPEDTAVYYCNADSYYYPYDYWGQGTQVTVSS | low polyreactivity
19 | QVQLVESGGGLVQAGGSLRLSCAASGFIFPYNTMGWYRQATAKERELVAAIRYSAGRTYYADSVKGRFTISRDNAKNTVYLQMNSLKPEDTEVYYCNGVSSGDMDYWGQGTQVTVSS | high polyreactivity
20 | QVQLVESAGGLVQAGGSLRLSCAASVSTLEYNAMGWYRQAPGNERELVAAITASGGSTYYADSVKGRFTISRDNAKKTVYLQMNSLKPDDTAVYYCATEANQRTLKDTVKDYDYWGQGTQVTVSS | low polyreactivity
21 | QVQLVESGGGLVQAGGSLRLSCAASGFIFYSNAMGWYRQAPGKERELVAAIRSTGSTSYADSVKGRFTISRDNAKNTVYLQMNILKPEDTAVYYCAKVRYWRGYDYWGQGTQVTVSS | high polyreactivity
22 | QVQLVESGGGLVQAGGSLRLSCAASGFTFVSYAMGWYRQAPGKERELVAVISKSGSRTSYAESVKGRFTISRDNAKNTVYLQMNSLKPEDTAVYYCAVFYTRIGPRYDYWGQGTQVTVSS | high polyreactivity
23 | QVQLVESGGGLVQAGGSLRLSCAASGFTLDWYVMGWYRQAPGKEREFVASIRYSGGSTYYADSVKGRFTISRDNAKNTVYLQMNRLKTEDTAVYYCAARTVTLSYLYYYWGQGTQVTVSS | high polyreactivity
24 | QVQLVESGGGLVQAGGSLRLSCAASGSTFDENAMGWYRQAPGKERELVAGITTNGGSTSYADSVKGRFTISRDNAKNTVYLQMNSLKPEDTAVYYCAKGLYVQFDYWGQGSQVTVSS | low polyreactivity
25 | QVQLVESGGGLVQAGGSLRLSCAASGRTLWTNAMGWYRQAPGKEREFVAPITWRGGSTYYADSVKGRFTISRDNAKNTVNLQMNSLKPEDTAVYYCATLIPRKGSRYYHRGYWGQGSQVTVSS | high polyreactivity
26 | QVQLVDSGGGLVQAGGSLRLSCAASGLIIWRNAMGWYRQAPGKERELVAAITYSGSRTYYADSVKGRFTISRDNAKNTVYLLMNSLKPEDTAVYYCNADYYWYPYEDDNWGQGTQVTVSS | low polyreactivity
27 | QVQLVESGGGLVQAGGSLRLSCDASGFIFVRYAMGWYRQAPGKEREFVAAISRSGGSTYYADSVKGRFTISRDNAKNTVYLQMNSLKPEDTAVYYCARQYASPRREFEYWGQGTQVTVSS | high polyreactivity
28 | QVQLVESGGGLVQAGGSLRLSCAASGGIFFSYAMGWYRQAPGKERELVAAIRTNGGTTYYADSVKGRFTISRDNAKNTVYLQMNSLKPEDTAVYYCAALPGGYYDRGEYDYWGQGTQVSVSS | low polyreactivity
29 | QVQLVESGGGLVQAGGSLSLSCAASGSIFYVNTMGWYRQAHGKERELVADISSGDSTYYADSVKGRFTISRDNAKNTVYFQMNSLKPEDTAVYFCNADVYSWVSGKEGDYWGQGTQVTVSS | low polyreactivity
30 | QDQLQESGGGLEQARGSLRLSCAASGYISTFSSEMGWYRQAPGKELELVASIAPCCTTSYADSVKGRCTISRDNAKNTVYLQMNSLKPEDTSVYYCAVDYTVPASFGFRGQGTQVTVSS | high polyreactivity
31 | QVQLVESGGGLVQAGGSLRISCAASGSNQDSYTMGWYRQAPGKERELVATISTSGGSTYYADSVKGRFTISRDNAKHTVYLQLNSLKPEDTAVYYCNADDPFGPHRYNSWGQGTQVTVSS | low polyreactivity
32 | QVQLVESGGGLVQAGGSLSLSCAASGSTIGPNAMGWYRQAPGKERDLVAAINTRGGSTYYADSVKGRFTISRDHANNTVYLQMNSLKPEDTAVYYCAAEYVVWYLDRFNYWGQGTQVTVSS | high polyreactivity

Reference: the nanobody polyreactivity screen of Harvey et al. (2022)
